Patent US20200230115A1, “METHODS OF TREATING INFLUENZA-ASSOCIATED VIRAL PNEUMONIA” (priority 2017, published 2020)
“Also recorded” adds a separate entry of the source.

Assays:
Parameters in all cases: species or system DBA/2J mice
Conditions in all cases: mouse, in vivo
IAV (WSNHAnc-Asp225Gly) [1] = test system: IAV (WSNHAnc-Asp225Gly)
IAV (WSNHAnc-Asp225Gly) [2] = test system: IAV (WSNHAnc-Asp225Gly); remark: listed apart in the source
IAV (WSNHAnc-Asp225Gly) [3] = test system: IAV (WSNHAnc-Asp225Gly); remark: listed apart in the source

B1: KGF: keratinocyte growth factor, a potent pulmonary epithelial mitogen; cognate receptor FGFR2 (protein, UniProt P21781 32-194, looked up)
Fibroblast growth factor 7: CNDMTPEQMATNVNCSSPERHTRSYDYMEGGDIRVRRLFCRTQWYLRIDKRGKVKGTQEMKNNYNIMEIRTVAVGIVAIKGVESEFYLAMNKEGKLYAKKECNEDCNFKELILENHYNTYASAKWTHNGGEMFVALNQKGIPVRGKKTKKEQKTAHFLPMAIT
For B1, the “KGF dose of maximal effect on IAV-induced mortality” value (IAV (WSNHAnc-Asp225Gly) [1]) was 5 mg/kg, the “mortality after KGF pretreatment” value (IAV (WSNHAnc-Asp225Gly) [1]) was “did not enhance mortality” and the “mortality, dose response” value (IAV (WSNHAnc-Asp225Gly) [1]) was “dose-dependent acceleration of mortality”. The shortening of survival (IAV (WSNHAnc-Asp225Gly) [1]) was 3 days, the “pulmonary viral burden vs PBS/IAV controls” value (IAV (WSNHAnc-Asp225Gly) [2]) was “three- to fivefold greater; also recorded: No difference in viral burden” and the “IAV-NP staining of lung sections” value (IAV (WSNHAnc-Asp225Gly) [3]) was “substantially more intense; also recorded: markedly more intense and diffuse”. For the same molecule, the “blinded semiquantitative analysis of IAV-NP staining” value (IAV (WSNHAnc-Asp225Gly) [3]) was “KGF-induced increase in viral burden and acceleration of spread”.
